The assay has as its target mosPTP-1 including the transmembrane region (91bp-2202bp), Aedes aegypti AAEL013105, on S2 cells (Aedes aegypti). In words: flow cytometry on cells. On the technique in general: Flow cytometry measures light scatter and fluorescence of single cells or particles in a stream.

The substance “mosGCTL-1 (mosquito Galactose-specific binding C-Type Lectin), Aedes aegypti AAEL000563 (natural protein)” came in with a percent of mosPTP-1-expressing cells that bound mosGCTL-1 of more than 40%.

The values above are taken from PMC2954371.
